Experimental data reported in publication PMC4718636.

Biological target: hAgo2 (Homo sapiens), Q9UKV8
Test: cleavage activity titration
Conditions: siRNA-bound hAgo2; remark: other sources report otherwise

hAgo2 (Homo sapiens), Q9UKV8, sequence (Q9UKV8 whole entry): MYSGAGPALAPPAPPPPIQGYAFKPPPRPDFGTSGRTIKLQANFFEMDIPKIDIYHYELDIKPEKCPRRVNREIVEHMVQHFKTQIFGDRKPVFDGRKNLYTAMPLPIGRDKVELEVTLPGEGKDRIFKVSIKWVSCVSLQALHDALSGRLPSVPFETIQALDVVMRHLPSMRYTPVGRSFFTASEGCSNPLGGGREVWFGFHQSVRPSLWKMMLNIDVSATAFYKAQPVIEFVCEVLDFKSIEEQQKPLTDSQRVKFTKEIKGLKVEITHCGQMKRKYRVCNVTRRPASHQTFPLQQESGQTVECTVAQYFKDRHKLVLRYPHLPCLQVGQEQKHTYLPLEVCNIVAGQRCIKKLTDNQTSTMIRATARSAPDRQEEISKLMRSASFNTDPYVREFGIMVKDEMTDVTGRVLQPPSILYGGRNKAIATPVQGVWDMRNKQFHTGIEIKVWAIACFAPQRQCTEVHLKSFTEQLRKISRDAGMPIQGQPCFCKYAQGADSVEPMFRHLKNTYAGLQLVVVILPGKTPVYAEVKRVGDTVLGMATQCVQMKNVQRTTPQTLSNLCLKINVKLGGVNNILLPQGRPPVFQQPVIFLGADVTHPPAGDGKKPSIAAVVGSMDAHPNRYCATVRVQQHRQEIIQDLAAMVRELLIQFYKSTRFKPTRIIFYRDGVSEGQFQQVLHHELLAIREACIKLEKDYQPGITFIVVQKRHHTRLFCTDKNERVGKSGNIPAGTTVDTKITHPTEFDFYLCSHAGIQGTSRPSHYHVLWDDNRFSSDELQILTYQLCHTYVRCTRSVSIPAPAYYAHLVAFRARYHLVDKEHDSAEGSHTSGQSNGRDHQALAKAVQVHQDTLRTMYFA

B1: hTRBP, Q15633 (protein)
chain: MSEEEQGSGTTTGCGLPSIEQMLAANPGKTPISLLQEYGTRIGKTPVYDLLKAEGQAHQPNFTFRVTVGDTSCTGQGPSKKAAKHKAAEVALKHLKGGSMLEPALEDSSSFSPLDSSLPEDIPVFTAAAAATPVPSVVLTRSPPMELQPPVSPQQSECNPVGALQELVVQKGWRLPEYTVTQESGPAHRKEFTMTCRVERFIEIGSGTSKKLAKRNAAAKMLLRVHTVPLDARDGNEVEPDDDHFSIGVGSRLDGLRNRGPGCTWDSLRNSVGEKILSLRSCSLGSLGALGPACCRVLSELSEEQAFHVSYLDIEELSLSGLCQCLVELSTQPATVCHGSATTREAARGEAARRALQYLKIMAGSK
Binder B1 has a Kd of 2 µM.
